Source: publication PMC11019930, “DnaK duplication and specialization in bacteria correlates with increased proteome complexity” (mSystems, 2024)

Experiments:
[1] = target: N2β1α1C1, recombinant purified (the MxDnaK1 chimera with the MxDnaK2 NBD) (Myxococcus xanthus DK1622); assay: SDS-PAGE of the purified protein (monomer and dimer bands); purified MxDnaKs and chimeras on SDS-PAGE, without DTT treatment; monomer (1×) and dimer (2×) bands
[2] = target: the molecule itself; assay: as above

| Molecule | oligomer state on SDS-PAGE (subunits per band) [1] | stoichiometry N [2] |
| --- | --- | --- |
| N2β1α1C1, recombinant purified (the MxDnaK1 chimera with the MxDnaK2 NBD) | 2 | – |
| His6-MxDnaK2 (natural protein, Myxococcus xanthus DK1622, UniProt P95334 1-607, looked up, MxDnaK2 (MXAN_6671) of Myxococcus xanthus DK1622; the gene was amplified from genomic DNA and cloned into pET28a; His6-MxDnaK2 printed as 65.3 kDa; also called MxDnaK2, recombinant purified; source: E. coli BL21 (DE3), purified (Ni-NTA); not shown: His6, N-terminal, kept) MGKVIGIDLGTTNSCVAVMEGGEPVVIPNSEGSRTTPSMVGFTDSGERLVGQIAKRQAITNPENTVFAAKRLIGRKFDSPEGKKAIGVSPFKVASSPNGDAWVEIRGKGYSPPEVSAIVLMKMKQTAEDYLGEQVSEAVITVPAYFNDSQRQATKDAGRIAGLSVLRIINEPTAAALAYGLDKVQDGGTERIAVYDLGGGTFDISILELNAGVFEVKSTNGDTFLGGEDFDQRLIDYLAKRFAESNNGLDLRKDRMALQRLKEAAERAKHELSSAPETEVNLPFITADASGPKHLTETVDRATFEALVTDLIDRTIEPCRIALKDAGIPAQQINQVLLVGGMTRMPRVQQKVKEFFGREPHKGINPDEVVAVGAAIQGGVLKGEVKDVLLLDVTPLSLGVETAGGVFTKIIDKNTTIPCKKSQVFSTAVDNQPLVSVHVLQGEREMAADNKTLARFELVGIPPAPRGVPQIEVSFDIDANGIVHVSAKDLGTGKVQQVRVVSNSGLSEAEIQAMISDAQSHASDDKKKKELAELRNNADGLIYTTEKSLEEYASLLSEKDREEIKADLERLKEVLNTSDAAVLKESFQRLEGSAYRIADAIYTGQAS | – | 2 |
